Test results from patent US8153410B2, “Alternate morpheein forms of allosteric proteins as a target for the development of bioactive molecules” (Fox Chase Cancer Center, priority 2003, dated 2012).
Read-outs that look alike come from different tables or passages of the source. Marks after values point to notes of the source that are not given here.

Columns and labels:
pea PBGS = target: T1, pea PBGS (Pisum sativum, UniProt P30124); settings: read-out: Kd for the allosteric magnesium of pea PBGS; cited from earlier work
T1 sequence (P30124 69-398 limits assumed): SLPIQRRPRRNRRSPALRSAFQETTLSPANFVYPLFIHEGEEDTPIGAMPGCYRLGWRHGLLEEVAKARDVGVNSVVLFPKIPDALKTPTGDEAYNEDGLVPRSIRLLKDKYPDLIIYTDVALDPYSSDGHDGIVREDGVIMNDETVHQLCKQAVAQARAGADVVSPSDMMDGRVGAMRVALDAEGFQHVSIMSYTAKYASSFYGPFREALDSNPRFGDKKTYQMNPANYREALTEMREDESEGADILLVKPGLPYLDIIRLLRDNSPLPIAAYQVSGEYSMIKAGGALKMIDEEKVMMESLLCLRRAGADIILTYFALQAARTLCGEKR

human PBGS [1] = experiment: temperature dependence (Arrhenius plots) of hetero-hexamer to hetero-octamer conversion and of substrate turnover; type: biochemical; settings: pH 7.0, 10 mM ALA-HCl
Source text: To determine the free energy of activation for the conversion of hetero-hexamers to hetero-octamers, we took advantage of the dramatic differences in the activity of octameric (high activity) and hexameric (low activity) human PBGS at pH 7.0 (3, 5). Because of this difference, the transition from purified hetero-hexamers to a mixture of hetero-hexamers and hetero-octamers under turnover conditions is accompanied by a progressive increase in the specific activity; this process was monitored at several temperatures. Starting with purified hetero-hexamers, (FIG. 34a) the specific activity increased, which is fit to a first-order exponential as exemplified in FIG. 35b (5). […] The time-courses for conversion of hetero-hexamer to hetero-octamer were monitored by periodically removing aliquots from the incubations and immediately quantifying porphobilinogen using Ehrlich's reagent and calculating specific activities based on the total incubation time. […] An activation energy for hetero-hexamer to hetero-octamer conversion (Ea=63±5 kJ/mol) was determined from the slope of the plot. […] However, we previously monitored this process at 5 μg/ml and 0.9 mg/ml, two widely different enzyme concentrations, by specific activity increase and dynamic light scattering respectively. […]

human PBGS [2] = experiment: kinetic characterization (Km, Vmax, specific activity) of human PBGS variants with substrate ALA; type: biochemical
Procedure: (§1) All kinetic determinations were carried out in 0.1 M bis-tris propane, 10 mM 2-mercaptoethanol, 10 μM Zn. For the pH rate profiles, the reported pH reflects the assay pH after the addition of 10 mM ALA-HCl. For Km and Vmax determinations, concentrations of ALA were 10 μM, 30 μM, 100 μM, 300 μM, 1 mM, 3 mM, and 10 mM and were each done in duplicate. […] All assays were at 37° C. for a fixed time using Ehrlich's reagent to determine porphobilinogen formed.
(§2) The kinetic parameters Km and Vmax of the S300 purified pools were determined at pH 7 and at pH 9 (Table 3 contains data for hetero-hexamers (Pool I) initially at 70% Leu and 30% Phe and for hetero-octamers (Pool II) initially at 30% Leu and 70% Phe). […] With the exception of the trace amount of octamer present for Pool I that is detected at pH 9, all the kinetic values are well determined (see Table 3). […] The factors that govern equilibration of human PBGS heteromers under assay conditions remain to be elucidated.
(§3) Km1 and Km2 (both mM) are interpreted as the Km for the octamer and hexamer, respectively.
(§4) Using freshly prepared hetero-oligomers of WT+F12L, the Pool I and Pool II proteins were separated chromatographically and then dialyzed for 24 hours at pH 7 in the presence of 10 mM ALA. Following dialysis, the re-equilibrated hetero-oligomers were again separated into their hexameric and octameric components by chromatography on a Mono-Q column. The separated proteins were characterized for their specific activity and for their Phe12 and Leu12 content. The specific activity of hexamer and octamer are dramatically different with hexamer showing optimal activity at pH 9 and the activity of octamer is maximal at pH 7 (Table 4). […] Following chromatographic separation, the proteins were called Pool I hexamer, Pool I octamer, Pool II hexamer, and Pool II octamer and are described below. The peak to elute first on the Mono-Q column runs comparably to the F12L mutant, which is the hexamer. The hexameric structure is substantiated by native gel electrophoresis and by specific activity at pH 7 and pH 9 (FIG. 26A and Table 4). The second peak to elute runs comparably to the WT human PBGS, which is the octamer. The octameric structure is substantiated by native gel electrophoresis and specific activity at pH 7 and pH 9 (FIG. 26A and Table 4). Consistent with the documented characteristics of human PBGS hexamers and octamers, Pool I hexamer and Pool II hexamer have very low activity at pH 7 and considerable activity at pH 9. Pool I octamer and Pool II octamer both show substantially higher activity at pH 7 than at pH 9.

human PBGS [3] = target: T2, human PBGS (Homo sapiens, UniProt P13716, C162A/K59N); experiment: as above; type: biochemical; settings: pH 9; Table 1; hexamer component
T2 construct: made in house; host or cells: E. coli BLR(DE3)
T2 sequence (P13716 1-330 K59N/C162A): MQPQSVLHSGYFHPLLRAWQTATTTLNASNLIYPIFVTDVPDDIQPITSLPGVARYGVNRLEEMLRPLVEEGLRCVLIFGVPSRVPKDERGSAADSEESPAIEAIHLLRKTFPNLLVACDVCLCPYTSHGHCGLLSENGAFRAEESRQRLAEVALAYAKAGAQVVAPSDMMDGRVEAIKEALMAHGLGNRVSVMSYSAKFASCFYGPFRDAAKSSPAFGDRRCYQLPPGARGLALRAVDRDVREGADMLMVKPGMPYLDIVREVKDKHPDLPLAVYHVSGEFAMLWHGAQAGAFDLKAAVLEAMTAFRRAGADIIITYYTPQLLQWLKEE
Procedure: as §1, §2, §3, §4

Molecule	Kd (pea PBGS) [µM]	activation energy for substrate turnover (human PBGS [1]) [kcal/mol]	Specific activities before and after substrate induced disproportionation (human PBGS [2]; pH 7) [µmol/h/mg]	Km1 (human PBGS [2]; pH 7, Table 1) [mM]	Vmax1 (human PBGS [2]; pH 7, Table 1)	Vmax1 (human PBGS [2]; pH 7, Table 3) [µmol/h/mg]	Km (human PBGS [2]; pH 7, Table 3, read-out: Km1 (Km for the octamer)) [µM]	Specific activities before and after substrate induced disproportionation (human PBGS [2]; pH 9) [µmol/h/mg]	Km1 (human PBGS [2]; pH 9, Table 1) [mM]	Vmax1 (human PBGS [2]; pH 9, Table 1)	Vmax1 (human PBGS [2]; pH 9, Table 3) [µmol/h/mg]	Vmax2 (human PBGS [2]; pH 9, Table 3) [µmol/h/mg]	Km (human PBGS [2]; pH 9, Table 3, read-out: Km1 (Km for the octamer)) [µM]	Km (human PBGS [2]; pH 9, Table 3, read-out: Km2 (Km for the hexamer)) [µM]	Km2 (human PBGS [3])	Vmax2 (human PBGS [3]) [µM/h/mg]
[Mg+2] [magnesium]	2500															
WT: wild type human PBGS (parent N59/C162A), octameric, expressed in E. coli (protein) MQPQSVLHSGYFHPLLRAWQTATTTLNASNLIYPIFVTDVPDDIQPITSLPGVARYGVNRLEEMLRPLVEEGLRCVLIFGVPSRVPKDERGSAADSEESPAIEAIHLLRKTFPNLLVACDVCLCPYTSHGHCGLLSENGAFRAEESRQRLAEVALAYAKAGAQVVAPSDMMDGRVEAIKEALMAHGLGNRVSVMSYSAKFASCFYGPFRDAAKSSPAFGDRRCYQLPPGARGLALRAVDRDVREGADMLMVKPGMPYLDIVREVKDKHPDLPLAVYHVSGEFAMLWHGAQAGAFDLKAAVLEAMTAFRRAGADIIITYYTPQLLQWLKEE		14.8 ± 0.24	56.9	0.25 ± 0.01	55.5 ± 0.2	55.5 ± 0.2	250 ± 10	13.1	0.015 ± 0.001	8.16 ± 0.13	8.16 ± 0.13	6.67 ± 0.36	15	4460 ± 800	4.46 ± 0.80^a mM	6.67
